This is an account of results in the supplement of paper PMC9732359.

The nature of this series: protein stability index of a GFP-peptide fusion (yeast GPS) (PSI 1-4); higher = more stable; sorted into four equal gates, so the index is relative within each strain. The gist of the method:
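Tiled 17-residue peptides from yeast proteins were fused downstream of GFP on a plasmid that also expresses Cherry, and the pooled library was carried in yeast. Mid-log cultures grown in leucine-free medium were sorted into four equal gates by GFP/Cherry fluorescence ratio. Plasmids from each gate were PCR-amplified and Illumina-sequenced, and reads were assigned to strains by barcodes. Each peptide's protein stability index is the sum, over gates, of the gate's read frequency multiplied by its gate number.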

± gives the uncertainty stated by the source.

As for YEMVIREKNALKRLAWQ [ISW2], the protein stability index runs as follows: (doa10∆) 2.08 ± 0.047; (pdr5∆) 2.5 ± 0.062; (san1∆) 2.32 ± 0.048; (ubr1∆) 2.37 ± 0.055.
Consider SQKHNGRILKWLWPLCR [CDC53], for which the protein stability index came out at 1.52 ± 0.063 (doa10∆), 1.33 ± 0.071 (pdr5∆), 1.35 ± 0.094 (san1∆) and 1.12 ± 0.04 (ubr1∆).
For KFLKIASLKHDNETKAM [RPN3], in that order: 2.75 ± 0.1, 3.16 ± 0.13, 2.76 ± 0.1 and 3.17 ± 0.12.
With TDGELDIEFINSLLTIV [RPC34], the protein stability index reads like this: (doa10∆) 2.78 ± 0.095; (pdr5∆) 2.68 ± 0.14; (san1∆) 2.4 ± 0.092; (ubr1∆) 2.81 ± 0.091.
In the same order, the values of VISNLVPKLESSRTKFW [YJL039C/NUP192] are 2.36 ± 0.26, 2.6 ± 0.13, 2.48 ± 0.28 and 2.69 ± 0.2.
With HQGSGGSVMSASVEIVF [SMC3], the protein stability index was found to be 2.05 ± 0.11 (doa10∆), 2.56 ± 0.081 (pdr5∆), 2.4 ± 0.082 (san1∆) and 2.26 ± 0.091 (ubr1∆).
As to TGNFIIPSGNVWNYTFM [PRP8], the protein stability index worked out at 3.05 ± 0.095 (doa10∆), 2.95 ± 0.12 (pdr5∆), 2.88 ± 0.077 (san1∆) and 3.18 ± 0.12 (ubr1∆).
In the same order, the values of RKALPKEPKKLLPNSKN [DSN1] are 2.55 ± 0.063, 2.69 ± 0.071, 2.69 ± 0.084 and 2.87 ± 0.05.
In the same order, the values of RAYMRPLGVILTFVSVD [SCL1] are 1.74 ± 0.049, 1.81 ± 0.044, 2.05 ± 0.083 and 2.16 ± 0.04.
As for DAIAVTKGHGFEGVTHR [RPL3], the protein stability index was determined as 3.06 ± 0.11 (doa10∆), 3.19 ± 0.11 (pdr5∆), 3.37 ± 0.1 (san1∆) and 3.36 ± 0.077 (ubr1∆).
LAKIKEEEMAPYYKYLC [RPN7]: the protein stability index reads like this: (doa10∆) 1.28 ± 0.091; (pdr5∆) 1.74 ± 0.25; (ubr1∆) 1.37 ± 0.2.
For QRRSWRQYVGQLAPSSV [DIS3], in that order: 2.06 ± 0.077, 2.45 ± 0.18 and 2.36 ± 0.078.
In the case of DRVKVIECFKPGDIVRA [CSL4], the protein stability index (doa10∆) amounted to 2.66 ± 0.13, the protein stability index (pdr5∆) was 2.39 ± 0.14, the protein stability index (san1∆) was determined as 2.1 ± 0.18 and the protein stability index (ubr1∆) amounted to 2.36 ± 0.16.
In the same order, the values of KPTVILKLLKENIIQME [FAS1] are 1.38 ± 0.087, 1.36 ± 0.12, 1.24 ± 0.11 and 1.1 ± 0.11.
With SAIDEEIEELIDSINGP [SMC3], the protein stability index by setting is: (doa10∆) 3.29 ± 0.14; (pdr5∆) 3.24 ± 0.17; (san1∆) 3.08 ± 0.17; (ubr1∆) 2.42 ± 0.24.
For EYKTSSDSLGPDTSNEI [SRB2], in that order: 2.67 ± 0.23, 2.47 ± 0.089, 2.96 ± 0.2 and 2.55 ± 0.1.
For VRTRGGNKKYRALRIET [RPS8A], in that order: 2.71 ± 0.032, 2.52 ± 0.03, 2.71 ± 0.031 and 2.853 ± 0.022.
For HARARGPRAVLTRQPTE [RET1], in that order: 3.28 ± 0.11, 3.31 ± 0.068, 3.08 ± 0.065 and 3.26 ± 0.06.
Turning to VSTAAAATVRSTIRRLR [RPL43A], the protein stability index worked out at 2.54 ± 0.076 (doa10∆), 2.8 ± 0.07 (pdr5∆), 2.13 ± 0.1 (san1∆) and 2.95 ± 0.057 (ubr1∆).
Turning to PNFLIMQGKITKVLNMK [SMC2], the protein stability index reads like this: (doa10∆) 2.73 ± 0.1; (pdr5∆) 2.86 ± 0.07; (san1∆) 2.85 ± 0.055; (ubr1∆) 2.88 ± 0.063.
For the sequence PLKTELEANGRSLEKVN [SSN2], the protein stability index runs as follows: (doa10∆) 3.19 ± 0.12; (pdr5∆) 3.34 ± 0.08; (san1∆) 3.22 ± 0.1; (ubr1∆) 3.55 ± 0.08.
In the case of GIAIGLNKGKKVTQMTP [RPL36B], the protein stability index (pdr5∆) is 1.51 ± 0.2.
Take PVENIWADIFAKALDGQ [RPP1A]: the protein stability index was determined as 3.13 ± 0.1 (doa10∆), 3.25 ± 0.12 (pdr5∆), 2.49 ± 0.23 (san1∆) and 2.62 ± 0.1 (ubr1∆).
For FNEKFPSLIQEEEEDTT [NUT1], in that order: 2.78 ± 0.086, 3.15 ± 0.093, 3.06 ± 0.074 and 3.06 ± 0.078.
For EKINRMIIFLKNYDATD [CSI1], in that order: 2.52 ± 0.045, 2.34 ± 0.044, 2.38 ± 0.046 and 2.26 ± 0.028.
As for FSFGAKPAEKNNNETSK [YJL041W/NSP1], the protein stability index reads like this: (pdr5∆) 2.52 ± 0.24; (ubr1∆) 3.08 ± 0.24.
VGFLVQLDLTGIFLHGK [PRP8]: the protein stability index reads like this: (doa10∆) 2.17 ± 0.074; (pdr5∆) 1.85 ± 0.05; (san1∆) 2.33 ± 0.058; (ubr1∆) 2.39 ± 0.067.
